Assay results reported in patent US11332499B2, “Cyclic peptides and methods of use thereof” (Regents of the University of Minnesota, priority 2018, dated 2022).
Where two headings read alike, the source gives them in different places. Bridge positions count the residues as written; N and C are the ends. Ends that are not written are not given here.

Tests used:
MC4R [1] = target: MC4R (Mus musculus, UniProt P56450); settings: β-galactosidase reporter gene assay; previously reported; cited from earlier work
MC1R = MC1R (Mus musculus, UniProt Q01727); settings: previously reported, read-out: MC1R agonist potency, cited from earlier work
MC3R = MC3R (Mus musculus, UniProt P33033); settings: β-galactosidase reporter gene assay; previously reported; cited from earlier work
free-feeding mice [2] = test: Mouse feeding study, intrathecal (IT) administration (Example 5); type: in vivo; settings: 10 nmol
Protocol: All studies were performed in standard mouse polycarbonate conventional cages provided by the University of Minnesota's Research Animal Resources (RAR), and were changed weekly by laboratory research staff.
All ICV and IT administration experiments utilized a crossover design with free access to standard chow. Mice were housed in RAR supplied conventional mouse cages. Compound MDE3-119-8e was dissolved in a stock solution of 10 nmols/μL in 3% v/v DMSO (Sigma Aldrich)/saline (0.9% sodium chloride, Hospira Inc., Lake Forest, Ill.). Ligands MDE3-119-2c and MDE3-119-10c were dissolved in 20% solutol (Sigma Aldrich). Matching vehicle controls (3% v/v DMSO in saline and 20% solutol) were prepared in parallel. The day of compound administration, an aliquot of stock solution was diluted with saline to the desired experimental dose in 3 μL, in parallel with vehicle control. For ICV administration, the desired experimental dose (3 μL) or vehicle control (3 μL) was delivered 2 h before lights out (t=0 h). […] Food intake and mouse weight was manually measured at t=0, 2, 4, 6, 8, 24, 48, and 72 h post-injection. […]
For feeding experiments with compound MDE3-119-10c, data were analyzed using the PRISM program (v4.0; GraphPad Inc.) by two-way ANOVA with a Sidak's multiple comparison post hoc test.

hMC4R-Kir7.1(M125R) = target: T1, hMC4R-Kir7.1(M125R) (Homo sapiens, UniProt P32245); test: Kir7.1 thallium flux assay, HEK293 cells expressing human MC4R and Kir7.1 (M125R); type: cell-based; settings: antagonist Ki / Kir7.1 apparent potency
T1 construct: expressed in transfected cells; Kir7.1 tetracycline-induced)
Protocol: In this assay, the Kir7.1 (M125R) variant was used since it previously was reported to result in higher unitary conductance compared to the native channel.^39
The compound with the highest apparent potency.
HEK293 cells stably expressing the human MC4R and Kir7.1 (M125R) were grown in MEM medium with 10% FBS without antibiotics, suspended in medium plus 1 μg ml^−1 tetracycline (to induce expression of the transfected tet-sensitive Kir7.1 gene) and plated (20 μL) in 384-well poly-D-lysine coated optical bottom plates (BD Biosciences) at 20,000 cells per well. Plates were incubated overnight for 16-24 h in the cell incubator at 37° C., 5% CO2. […] Plates were incubated in the dark for 1 h at room temperature and dye solution was removed. Upon addition of 20 μL 1×HBSS buffer, a liquid handler added 20 μL of ligand solution to entire plate simultaneously (ligands were prepared by serial dilution in 1×HBSS, 20 mM HEPES, 0.1% BSA, pH 7.3). Plates were incubated in the dark for 20 min (unless otherwise indicated). After a baseline reading on a Thallos Plate-reader (Vanderbilt, Tenn.), 10 μL of a thallium solution (1×HBSS, 20 mM HEPES, 2 mM Tl, pH 7.3) was loaded and fluorescence generated by thallium influx was recorded for 10 min. The signal was normalized to an untreated control.

mMC4R = mMC4R (Mus musculus, UniProt P56450); design: expressed in transfected cells; settings: cited from earlier work
MC4R [3] = target: T2, MC4R (Homo sapiens, UniProt P32245); test: AlphaScreen cAMP assay, antagonist activity (Schild, NDP-MSH) at hMC4R; type: cell-based; design: expressed in transfected cells; settings: Example 5
Protocol: (§1) Briefly, cells 70-90% confluent were dislodged with Versene (Gibco®) at 37° C. and plated 10,000 cells/well in a 384-well plate (Optiplate™) with 10 μL freshly prepared stimulation buffer (1×HBSS, 5 mM HEPES, 0.5 mM IBMX, 0.1% BSA, pH=7.4) with 0.5 μg anti-cAMP acceptor beads per well.
(§2) Following stimulation, streptavidin donor beads (0.5 μg) and biotinylated-cAMP (0.62 μmol) were added to the wells in a subdued light environment with 10 μL lysis buffer (5 mM HEPES, 0.3% Tween-20, 0.1% BSA, pH=7.4) and the plates were incubated in the dark at room temperature for an additional 2 hr.
(§3) The EC50 values represent the mean of duplicate replicates performed in at least three independent experiments. The EC50 estimates and associated standard errors (SEM) were determined by fitting the data to a nonlinear least-squares analysis using the PRISM program (v4.0, GraphPad Inc.). The ligands were assayed as TFA salts and not corrected for peptide context.

MC4R [4] = target: T2, MC4R; test: Competitive radioligand binding, displacement of 125I-AGRP, HEK293 cells expressing hMC4R; design: expressed in transfected cells; settings: displacement of 125I-AGRP
Protocol: Competitive binding affinity experiments were performed on HEK-293 cells stably expressing the wildtype hMC4R. […] The assay media was carefully aspirated and cells were washed once with assay buffer. Cell were lysed with 500 μL 0.1 M NaOH and 500 μL 1% Triton X-100 for a minimum of 10 min. […] All experiments were performed with duplicate data points and in at least two independent experimental replicates. […] Concentration-response curves and IC50 values were generated and analyzed by the PRISM program (version 4.0. GraphPad Inc.) by a nonlinear regression method. The standard error of the mean (SEM) was derived from the IC50 values from at least two independent experimental replicates.

free-feeding mice [5] = test: Mouse feeding study, intracerebroventricular (ICV) administration; type: in vivo; settings: 10 nmol
Protocol: Cannulation surgeries were performed to place a cannula into the lateral cerebral ventricle as previously reported.^23,67,76 Mice were anesthetized with a mixture of xylazine (5 mg/kg) and ketamine (100 mg/kg) administered intraperitoneal (IP) and placed in a stereotaxic apparatus (David Kopf Instruments) that was used to guide the cannula placement. […] After surgery, flunixin meglumine (FluMegluine, Clipper Distribution Company) and 0.5 mL of 0.9% saline (Hospira, Lake Forrest, Ill.) was administered subcutaneously to aid in recovery. Mice recovered for at least 7 days prior to cannula placement validation. Mice were housed individually after surgery and for the remainder of the experiments.
Cannula placement was validated by the feeding response after ICV administration of 2.5 μg of human (h)PYY3-36 (cat # H8585; Bachem), as described previously.^23,67,75-76 Mice received saline treatment and hPYY treatment on different days separated by a washout period of at least 3 days in a crossover design nocturnal feeding paradigm. In this paradigm, compound or saline is administered 2 h prior to lights out (t=0 h) and body weight and food are measured. Mice have free access to food and water. At 4 h post-administration, food is measured. A mouse with a validated properly placed cannula consumed at least 0.8 g more food after hPYY administration compared to saline administration at 4 h.
All ICV and IT administration experiments utilized a crossover design with free access to standard chow. Mice were housed in RAR supplied conventional mouse cages. […] Matching vehicle controls (3% v/v DMSO in saline and 20% solutol) were prepared in parallel. The day of compound administration, an aliquot of stock solution was diluted with saline to the desired experimental dose in 3 μL, in parallel with vehicle control. For ICV administration, the desired experimental dose (3 μL) or vehicle control (3 μL) was delivered 2 h before lights out (t=0 h). For IT administration, the desired experimental dose (5 μL) or vehicle control (5 μL) was delivered 2 h before lights out (t=0 h). Food intake and mouse weight was manually measured at t=0, 2, 4, 6, 8, 24, 48, and 72 h post-injection. Mice recovered 6-7 days between treatments to reestablish pretreatment body weight and feeding patterns.

MC4R [6] = target: T2, MC4R; test: Competitive radioligand binding, displacement of 125I-NDP-MSH, HEK293 cells expressing hMC4R; design: expressed in transfected cells; settings: displacement of 125I-NDP-MSH
MC4R [7] = target: T2, MC4R; test: AlphaScreen cAMP assay, inverse agonist activity at hMC4R; type: cell-based; design: expressed in transfected cells; settings: Table 10
Protocol: The apparent potencies were determined from the inflection point of the normalized sigmoidal dose-response curves.
as §1, §2, §3

MC4R [8] = target: T2, MC4R; design: expressed in transfected cells; settings: Table 10; AGRP(87-132), previously reported by Jackson et al.; read-out: hMC4R 125I-NDP-MSH IC50; cited from earlier work
mMC5R = target: T3, mMC5R (Mus musculus, UniProt P41149); settings: Table 6; previously described (Wilczynski 2004); read-out: Inverse Agonist mMC5R EC50; cited from earlier work
T3 construct: expressed in transfected cells

mMC1R = target: T4, mMC1R (Mus musculus, UniProt Q01727); settings: Table 6; previously described (Wilczynski 2004); read-out: Agonist mMC1R EC50; cited from earlier work
T4 construct: expressed in transfected cells

rats = settings: ICV administration into rats; cited from earlier work
mMC3R = target: T5, mMC3R (Mus musculus, UniProt P33033); settings: Table 6, previously described (Wilczynski 2004), cited from earlier work
T5 construct: expressed in transfected cells
T5 sequence (P33033 whole entry): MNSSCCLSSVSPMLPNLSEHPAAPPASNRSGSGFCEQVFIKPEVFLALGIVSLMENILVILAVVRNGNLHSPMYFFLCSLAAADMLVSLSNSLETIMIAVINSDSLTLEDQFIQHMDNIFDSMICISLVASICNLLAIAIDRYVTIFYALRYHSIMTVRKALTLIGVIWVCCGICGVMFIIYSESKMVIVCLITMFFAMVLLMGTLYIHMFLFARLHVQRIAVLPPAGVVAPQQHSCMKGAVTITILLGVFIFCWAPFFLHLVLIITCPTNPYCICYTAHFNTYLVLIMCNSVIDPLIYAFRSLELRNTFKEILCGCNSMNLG

Sequence of mMC4R (P56450 whole entry): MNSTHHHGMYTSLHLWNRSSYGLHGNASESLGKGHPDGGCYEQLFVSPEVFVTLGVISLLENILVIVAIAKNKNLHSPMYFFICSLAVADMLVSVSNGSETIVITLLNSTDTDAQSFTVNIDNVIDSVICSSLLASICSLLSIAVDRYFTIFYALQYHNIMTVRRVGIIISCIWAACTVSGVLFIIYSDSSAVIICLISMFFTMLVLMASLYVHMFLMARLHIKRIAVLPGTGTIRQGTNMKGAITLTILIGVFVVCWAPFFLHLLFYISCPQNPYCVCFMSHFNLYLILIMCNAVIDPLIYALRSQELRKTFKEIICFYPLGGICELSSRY
T2 sequence (P32245 whole entry): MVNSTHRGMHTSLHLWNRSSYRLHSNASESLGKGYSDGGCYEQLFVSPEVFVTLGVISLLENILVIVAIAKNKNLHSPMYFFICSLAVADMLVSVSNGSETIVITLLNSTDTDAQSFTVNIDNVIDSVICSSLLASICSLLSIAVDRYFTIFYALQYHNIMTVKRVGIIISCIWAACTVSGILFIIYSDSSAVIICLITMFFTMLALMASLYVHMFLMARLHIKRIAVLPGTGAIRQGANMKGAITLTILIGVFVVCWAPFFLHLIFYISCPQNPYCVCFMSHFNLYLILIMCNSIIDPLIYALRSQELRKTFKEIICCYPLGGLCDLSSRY
Sequence of MC1R (Q01727 whole entry): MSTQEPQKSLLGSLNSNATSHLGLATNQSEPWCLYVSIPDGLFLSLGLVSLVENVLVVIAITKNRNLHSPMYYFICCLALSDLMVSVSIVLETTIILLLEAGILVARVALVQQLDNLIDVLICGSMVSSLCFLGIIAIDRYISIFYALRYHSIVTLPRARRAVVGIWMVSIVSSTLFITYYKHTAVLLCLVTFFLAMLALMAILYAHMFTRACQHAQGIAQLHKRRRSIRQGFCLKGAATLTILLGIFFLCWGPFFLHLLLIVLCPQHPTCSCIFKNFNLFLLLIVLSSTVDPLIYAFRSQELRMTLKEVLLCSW
T1 sequence (P32245 whole entry, stated change not applied): as the sequence (P32245 whole entry) above
T3 sequence (P41149 whole entry): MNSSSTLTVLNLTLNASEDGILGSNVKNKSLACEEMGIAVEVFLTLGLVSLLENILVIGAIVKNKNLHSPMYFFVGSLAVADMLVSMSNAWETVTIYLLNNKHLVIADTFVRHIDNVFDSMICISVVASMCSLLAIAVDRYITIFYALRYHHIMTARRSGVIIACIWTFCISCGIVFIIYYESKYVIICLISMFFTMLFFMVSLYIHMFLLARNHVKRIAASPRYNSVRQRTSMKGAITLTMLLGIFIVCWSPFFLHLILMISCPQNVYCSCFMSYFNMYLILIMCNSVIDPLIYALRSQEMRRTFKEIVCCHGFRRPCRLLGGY
T4 sequence (Q01727 whole entry): as the sequence (Q01727 whole entry) above
Sequence of MC4R (Mus musculus, UniProt P56450) (P56450 whole entry): as the sequence (P56450 whole entry) above
Sequence of MC3R (P33033 whole entry): as the sequence (P33033 whole entry) above

Q: Which “MC4R antagonist pA2” value (MC4R [1]) does the source give for “Tyr-c[Cys-Arg-Phe-Phe-Asn-Ala-Phe-Cys]-Tyr (YCRFFNAFCY; disulfide 2-9) [hAGRP (109-118)]” here?
A: 6.8 ± 0.4

Q: And the EC50 (MC1R; listed as H-Tyr-c[Cys-Arg-Phe-Phe-Asn-Ala-Phe-Cys]-Tyr-OH)?
A: 2890 nM

Q: And the EC50 (MC1R)?
A: 3000 nM

Q: What about the “MC3R antagonist pA2” value (MC3R) of the same substance?
A: No activity

Q: Which “food intake after IT administration vs vehicle” value (free-feeding mice [2]) does the source give for “c[Pro-Arg-Phe-Phe-Val-Ala-Phe-DPro] [Peptide 13 (Example 1)]” here?
A: no effect on food intake compared to vehicle

Q: What about the “fold selective for Kir7.1 signaling over cAMP antagonism” value (hMC4R-Kir7.1(M125R)) of the same substance?
A: 4,000 fold

Q: And the “fold decreased antagonist potency compared to the Dap substitution at the mMC4R” value (mMC4R; previous SAR study (ref 52))?
A: 630 fold

Q: What about the “fold decreased antagonist potency relative to MDE3-119-8c at the hMC4R” value (MC4R [3]) of the same substance?
A: 310 fold

Q: And the “fold decreased binding affinity compared to AGRP” value (MC4R [4])?
A: 200 fold

Q: What about the “cumulative food intake after ICV administration vs vehicle” value (free-feeding mice [5]) of the same substance?
A: significant, prolonged decrease in cumulative food intake at 4, 6, 8, 24, 48, and 72 h

Q: And the “fold decreased binding affinity compared to NDP-MSH” value (MC4R [6])?
A: 200 fold

Q: With “hAGRP(86-132): C-terminal domain of agouti-related protein, purchased from Peptides International (RCVRLHESCLGQQVPCCDPCATCYCRFFNAFCYCRKLGTAMNPCSRT) [reference compound]” as the substance, how does the “hMC4R Inverse Agonist, decrease from basal signal” value (MC4R [7]) read?
A: (-35%)

Q: And the “fold selective for cAMP over Kir7.1 signaling” value (hMC4R-Kir7.1(M125R))?
A: 2 fold

Q: What about the IC50 (MC4R [8]) of the same substance?
A: 11 ± 1 nM

Q: Which EC50 (mMC5R) does the source give for “hAGRP(87-132): truncated human agouti-related protein, previously described in Wilczynski et al. 2004” here?
A: > 100000 nM

Q: And the EC50 (mMC1R)?
A: > 100000 nM

Q: And the “increase of 24 h food intake above saline” value (rats)?
A: 42%

Q: And the “Antagonist mMC4R pA2” value (mMC4R; Table 6, previously described (Wilczynski 2004))?
A: 9.4 ± 1.0

Q: And the Ki (mMC4R; Table 6, previously described (Wilczynski 2004), read-out: Antagonist mMC4R Ki)?
A: 0.4 nM

Q: What about the “Antagonist mMC3R pA2” value (mMC3R) of the same substance?
A: 8.9 ± 0.2

Q: And the Ki (mMC3R; read-out: Antagonist mMC3R Ki)?
A: 1.3 nM
